Reference: patent publication US20170007595A1, “NSD3 INHIBITORS FOR TREATMENT OF CANCERS” (THE BRIGHAM AND WOMEN'S HOSPITAL, INC., priority 2014, published 2017)

Legend:
BRD4-NUT foci = molecular target: T1, BRD4-NUT foci (Homo sapiens, UniProt O60885+Q86Y26); experiment: immunofluorescence co-localization in 797TRex cells; type: cell-based; conditions: HA-tagged, induced 24 h
T1 construct: composed of the N-terminal of BRD4 (amino acids 1-720 out of 1372); endogenous in cells; host or cells: 797TRex cells (tet-inducible derivative of the BRD4-NUT-positive NMC line TC-797)
Protocol: Immunofluorescence on TC-797 cells was performed as described (55) and nuclei were counterstained with ProLong® Gold antifade reagent with 4′,6-diamidino-2-phenylindole (DAPI) (Life Technologies). Primary antibodies used were anti-NUT (1:1000, rabbit monoclonal clone C52, Cell Signaling Technology), and anti-HA (1:500, mouse monoclonal, Sigma-Aldrich). Secondary antibodies included goat anti-rabbit Alexa Fluor 594 and goat anti-mouse Alexa Fluor 488 (1:1000, Life Technologies, Grand Island, N.Y.). Photos were taken on a Nikon Eclipse E600 fluorescent microscope (Melville, N.Y.) using a Spot RTSlider camera (Diagnostic Instruments, Inc., Sterling Heights, Mich.), and Spot Advanced software (Diagnostic Instruments, Inc.).

BRD4 = molecular target: T2, BRD4 (Homo sapiens, UniProt O60885); experiment: anti-HA co-immunoprecipitation in C33A-6TR cells; type: binding; conditions: HA-tagged construct, C33A cervical carcinoma cells
T2 construct: endogenous in cells; host or cells: C33A-6TR (tet-repressor-positive C33A cervical carcinoma cells)
Protocol: For co-immunoprecipitation experiments of HA-tagged proteins, C33A-6TR cells stably expressing HA-tagged constructs under a Tet-inducible promoter were used. Protein extracts were prepared 24 h after transfection or induction with Doxycycline (1 μg/ml). Cells were lysed in lysis buffer (50 mM Tris-HCl [pH 7.5], 150 mM NaCl, 0.5% Nonidet P-40) with freshly added protease inhibitors (Roche Complete, EDTA free protease inhibitor cocktail, Roche, Indianapolis, Ind.). Extracts were adjusted for protein concentration and 10% of extracts were used as Input Immunoprecipitations were performed using 15 μl of HA-resin (Sigma A2095). Extracts were incubated overnight at 4° C., and precipitated proteins were detected by Western blot analysis.

797TRex cells [1] = experiment: differentiation of 797TRex cells on induced expression of construct (involucrin immunoblot, H&E, IHC); type: cell-based, human; conditions: induced expression for 120 h
Excerpt: BRD4 ET domain containing fragment (BRD4 444-722) was cloned into pcDNA5 FRT/TO-FLAG (Invitrogen) with an N-terminal SV40 NLS sequence to generate pcDNA5 FRT/TO-Flag-NLS-BRD4-ET (p6894). MSCV-CMV-Flag-HA-NSD3 (p6351) has been described previously (8). To make tetracycline-inducible N- and C-terminal BioTAP-tagged constructs, the inventors transferred the gateway destination cassette from pHAGE-TRE (gift of Steven Elledge) to the pcDNA5 frt/to mammalian expression vector with N-terminal BioTAP tandem tag to make pcDNA5 frt/to-DEST-NBioTAP. NSD3-NUT was constructed by fusion PCR into pDONR223, then transferred into the pcDNA5 frt/to-DEST-NBioTAP vector by gateway cloning. Full length NSD3, NSD3Tr encoding amino acids 1-569 of NSD3, full length NUT, BRD4-NUT (derived from pcDNA5 frt/to FLAG-BRD4-NUT (17)) were PCR-cloned into pDONR223, then transferred by gateway cloning into the pHAGE-P CMVt N-HA GAW expression vector derived from the PHAGE lentiviral vector (52).
NMC cell lines, TC-797 (15) 10-15 (6), 8645(17), 293T, U205, and C33A cells were maintained as monolayer cultures in Dulbecco Modified Eagle medium (DMEM) (Invitrogen) supplemented with 10% (v/v) Fetal Bovine Serum (FBS, SH3008803, Hyclone) and 1% pen-strep (GIBCO/Invitrogen). […]

U2OS cells = experiment: luminescent cell viability assay (CellTiter-Glo), U2OS; type: cell-based; conditions: induced ET domain expression for 120 h
Protocol: (§1) Cells were plated at a density of 3000 per well in a 96-well plate, and CellTiter-Glo (Promega, Madison, Wis.) was used to determine cell viability as a measure of ATP content according to the manufacturer's instructions.

293T cells = experiment: luminescent cell viability assay (CellTiter-Glo), 293T; type: cell-based; conditions: induced ET domain expression for 120 h
Protocol: as §1

797TRex cells [2] = experiment: luminescent cell viability assay (CellTiter-Glo), 797TRex; type: cell-based, human; conditions: induced ET domain expression for 120 h
Protocol: as §1

| co-localization with BRD4-NUT foci (BRD4-NUT foci) | co-immunoprecipitation of BRD4 (BRD4) | Molecule | differentiation (morphology, involucrin) (797TRex cells [1]) | growth (cell viability, CellTiter-Glo) (U2OS cells) | growth (cell viability, CellTiter-Glo) (293T cells) | proliferation rate (cell viability, CellTiter-Glo) (797TRex cells [2]) |
| --- | --- | --- | --- | --- | --- | --- |
| co-localized with BRD4-NUT foci | co-immunoprecipitated BRD4 | NSD3Tr: portion of NSD3 present in NSD3-NUT, amino acids 1-569 of NSD3, HA- or BioTAP-tagged, inducibly expressed (protein, left off: large carriers; small tags and cut ends, portion of NSD3 present in NSD3-NUT, amino acids 1-569 of NSD3, HA- or BioTAP-tagged, inducibly expressed) MDFSFSFMQGIMGNTIQQPPQLIDSANIRQEDAFDNNSDIAEDGGQTPYEATLQQGFQYPATTEDLPPLTNGYPSSISVYETQTKYQSYNQYPNGSANGFGAVRNFSPTDYYHSEIPNTRPHEILEKPSPPQPPPPPSVPQTVIPKKTGSPEIKLKITKTIQNGRELFESSLCGDLLNEVQASEHTKSKHESRKEKRKKSNKHDSSRSEERKSHKIPKLEPEEQNRPNERVDTVSEKPREEPVLKEEAPVQPILSSVPTTEVSTGVKFQVGDLVWSKVGTYPWWPCMVSSDPQLEVHTKINTRGAREYHVQFFSNQPERAWVHEKRVREYKGHKQYEELLAEATKQASNHSEKQKIRKPRPQRERAQWDIGIAHAEKALKMTREERIEQYTFIYIDKQPEEALSQAKKSVASKTEVKKTRRPRSVLNTQPEQTNAGEVASSLSSTEIRRHSQRRHTSAEEEEPPPVKIAWKTAAARKSLPASITMHKGSLDLQKCNMSPVVKIEQVFALQNATGDGKFIDQFVYSTKGIGNKTEISVRGQDRLIISTPNQRNEKPTQSVSSPEATSGST | found to induce differentiation |  |  |  |
|  |  | ET domain: BRD4 ET domain containing fragment (BRD4 444-722) with N-terminal SV40 NLS, FLAG-tagged, tet-inducibly expressed (protein, left off: small tags and cut ends, BRD4 ET domain containing fragment (BRD4 444-722) with N-terminal SV40 NLS, FLAG-tagged, tet-inducibly expressed) KLQDVFEMRFAKMPDEPEEPVVAVSSPAVPPPTKVVAPPSSSDSSSDSSSDSDSSTDDSEEERAQRLAELQEQLKAVHEQLAALSQPQQNKPKKKEKDKKEKKKEKHKRKEEVEENKKSKAKEPPPKKTKKNNSSNSNVSRKEPAPMKSKPPPTYESEEEDKCKPMSYEEKRQLSLDINLPGEKLGRVVHIIQSREPSLKNSNPDEIEIDFETLKPSTLRELERYVTSCLRKKRKPQAEICVDVIAGSSKMKGFSSSESESSSESSSSDSEDSETEMAP | inducing differentiation morphologically and immunophenotypically | unaffected | unaffected | negatively affected the proliferation rate |
